The record followed here is the supplement of paper PMC5998384.

Data set [1] deals with HeLa Kyoto. As to the kind of experiment: melting temperature (median over replicates), in situ; higher = more thermally stable.
In data set [2] the test system is HeLa Kyoto. As to the kind of experiment: solubility change mitosis vs G1/S (difference of NP-40 vs SDS log2 ratios) (log2 ratio difference); higher = more soluble in mitosis.
The test system of data set [3] is HeLa Kyoto. As to the kind of experiment: thermal stability score vs G1/S (z-score of summed log2 fold changes over temperatures); higher = more thermally stable than in G1/S.
Data set [4] has as its system HeLa Kyoto. Kind of data set: solubility in G1/S (NP-40 vs SDS abundance) (log2 ratio); higher = more soluble. The following applies: cell cycle stage: G1/S.
The mark [5] stands for this setting: cell cycle stage: early G1 (4.5 h after nocodazole release).
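Wherever melting temperature (median over replicates), in situ is given: HeLa Kyoto cells synchronized by double thymidine or nocodazole block, proteins quantified by TMT10plex mass spectrometry, three independent biological replicates.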
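Wherever solubility change mitosis vs G1/S (difference of NP-40 vs SDS log2 ratios) is given: synchronized HeLa Kyoto cells (double thymidine block for G1/S, nocodazole release for mitosis), protein amounts in NP-40 versus SDS lysates quantified by mass spectrometry, three biological replicates.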
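Wherever solubility in G1/S (NP-40 vs SDS abundance) is given: HeLa Kyoto cells arrested at G1/S by double thymidine block, proteins quantified by TMT10plex mass spectrometry in mild NP-40 versus SDS extracts, three biological replicates.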
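Wherever thermal stability score vs G1/S (z-score of summed log2 fold changes over temperatures) is given: synchronized HeLa Kyoto cells, proteins quantified by TMT10plex mass spectrometry, three biological replicates, mitosis taken 0.5 h after nocodazole release, G1/S directly after double thymidine block.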

On to “MYGSARSVGKVEPSSQSPGRSPRLPRSPRLGHRRTNSTGGSSGSSVGGGSGKTLSMENIQSLNAAYATSGPMYLSDHENVGSETPKSTMTLGRSGGRLPYGVRMTAMGSSPNIASSGVASDTIAFGEHHLPPVSMASTVPHSLRQARDNTIMDLQTQLKEVLRENDLLRKDVEVKESKLSSSMNSIKTFWSPELKKERALRKDEASKITIWKEQYRVVQEENQHMQMTIQALQDELRIQRDLNQLFQQDSSSRTGEPCVAELTEENFQRLHAEHERQAKELFLLRKTLEEMELRIETQKQTLNARDESIKKLLEMLQSKGLSAKATEEDHERTRRLAEAEMHVHHLESLLEQKEKENSMLREEMHRRFENAPDSAKTKALQTVIEMKDSKISSMERGLRDLEEEIQMLKSNGALSTEEREEEMKQMEVYRSHSKFMKNKVEQLKEELSSKEAQWEELKKKAAGLQAEIGQVKQELSRKDTELLALQTKLETLTNQFSDSKQHIEVLKESLTAKEQRAAILQTEVDALRLRLEEKETMLNKKTKQIQDMAEEKGTQAGEIHDLKDMLDVKERKVNVLQKKIENLQEQLRDKEKQMSSLKERVKSLQADTTNTDTALTTLEEALAEKERTIERLKEQRDRDEREKQEEIDNYKKDLKDLKEKVSLLQGDLSEKEASLLDLKEHASSLASSGLKKDSRLKTLEIALEQKKEECLKMESQLKKAHEAALEARASPEMSDRIQHLEREITRYKDESSKAQAEVDRLLEILKEVENEKNDKDKKIAELERQVKDQNKKVANLKHKEQVEKKKSAQMLEEARRREDNLNDSSQQLQDSLRKKDDRIEELEEALRESVQITAEREMVLAQEESARTNAEKQVEELLMAMEKVKQELESMKAKLSSTQQSLAEKETHLTNLRAERRKHLEEVLEMKQEALLAAISEKDANIALLELSSSKKKTQEEVAALKREKDRLVQQLKQQTQNRMKLMADNYEDDHFKSSHSNQTNHKPSPDQIIQPLLELDQNRSKLKLYIGHLTTLCHDRDPLILRGLTPPASYNLDDDQAAWENELQKMTRGQLQDELEKGERDNAELQEFANAILQQIADHCPDILEQVVNALEESS [ERC1]”, for which the melting temperature in the data set with HeLa Kyoto [1] (cell cycle stage: G1/S) amounted to 48.4 °C; in the data set with HeLa Kyoto [1] (cell cycle stage: mitosis) it was 50.1 °C. Besides, in the data set with HeLa Kyoto [2], the “solubility change mitosis (log2)” value came out at 0.00205. Moreover, the thermal stability score with HeLa Kyoto [3] (setting [5]) stood at 1.35; in the data set with HeLa Kyoto [3] (cell cycle stage: mitosis), 1.65. In addition, the “solubility in G1/S (log2)” value with HeLa Kyoto [4] turned out to be 0.626.
Turning to “MIKKFDKKDEESGSGSNPFQHLEKSAVLQEARIFNETPINPRRCLHILTKILYLLNQGEHFGTTEATEAFFAMTRLFQSNDQTLRRMCYLTIKEMATISEDVIIVTSSLTKDMTGKEDVYRGPAIRALCRITDGTMLQAIERYMKQAIVDKVSSVSSSALVSSLHMMKISYDVVKRWINEAQEAASSDNIMVQYHALGVLYHLRKNDRLAVSKMLNKFTKSGLKSQFAYCMLIRIASRLLKETEDGHESPLFDFIESCLRNKHEMVIYEAASAIIHLPNCTARELAPAVSVLQLFCSSPKPALRYAAVRTLNKVAMKHPSAVTACNLDLENLITDSNRSIATLAITTLLKTGSESSVDRLMKQISSFVSEISDEFKVVVVQAISALCQKYPRKHSVMMTFLSNMLRDDGGFEYKRAIVDCIISIVEENPESKEAGLAHLCEFIEDCEHTVLATKILHLLGKEGPRTPVPSKYIRFIFNRVVLENEAVRAAAVSALAKFGAQNESLLPSILVLLQRCMMDTDDEVRDRATFYLNVLQQRQMALNATYIFNGLTVSVPGMEKALHQYTLEPSEKPFDMKSIPLAMAPVFEQKAEITLVATKPEKLAPSRQDIFQEQLAAIPEFLNIGPLFKSSEPVQLTEAETEYFVRCIKHMFTNHIVFQFDCTNTLNDQLLEKVTVQMEPSDSYEVLSCIPAPSLPYNQPGICYTLVRLPDDDPTAVAGSFSCTMKFTVRDCDPNTGVPDEDGYDDEYVLEDLEVTVSDHIQKVLKPNFAAAWEEVGDTFEKEETFALSSTKTLEEAVNNIITFLGMQPCERSDKVPENKNSHSLYLAGIFRGGYDLLVRSRLALADGVTMQVTVRSKERTPVDVILASVG [COPG2]”, the melting temperature in the data set on HeLa Kyoto [1] (cell cycle stage: G1/S) was found to be 52 °C; with HeLa Kyoto [1] (cell cycle stage: mitosis), 51.8 °C. In the data set with HeLa Kyoto [2], the “solubility change mitosis (log2)” value was -0.304. Besides, the thermal stability score in the data set with HeLa Kyoto [3] (setting [5]) worked out at 0.652; in the data set on HeLa Kyoto [3] (cell cycle stage: mitosis) it was 0.0351. Further, the “solubility in G1/S (log2)” value in the data set on HeLa Kyoto [4] was -0.192.
Turning to “MAARSWQDELAQQAEEGSARLREMLSVGLGFLRTELGLDLGLEPKRYPGWVILVGTGALGLLLLFLLGYGWAAACAGARKKRRSPPRKREEAAAVPAAAPDDLALLKNLRSEEQKKKNRKKLSEKPKPNGRTVEVAEGEAVRTPQSVTAKQPPEIDKKNEKSKKNKKKSKSDAKAVQNSSRHDGKEVDEGAWETKISHREKRQQRKRDKVLTDSGSLDSTIPGIENTITVTTEQLTTASFPVGSKKNKGDSHLNVQVSNFKSGKGDSTLQVSSGLNENLTVNGGGWNEKSVKLSSQISAGEEKWNSVSPASAGKRKTEPSAWSQDTGDANTNGKDWGRSWSDRSIFSGIGSTAEPVSQSTTSDYQWDVSRNQPYIDDEWSGLNGLSSADPNSDWNAPAEEWGNWVDEERASLLKSQEPIPDDQKVSDDDKEKGEGALPTGKSKKKKKKKKKQGEDNSTAQDTEELEKEIREDLPVNTSKTRPKQEKAFSLKTISTSDPAEVLVKNSQPIKTLPPATSTEPSVILSKSDSDKSSSQVPPILQETDKSKSNTKQNSVPPSQTKSETSWESPKQIKKKKKARRET [MTDH]”, the melting temperature in the data set on HeLa Kyoto [1] (cell cycle stage: G1/S) was determined as 59.1 °C; in the data set with HeLa Kyoto [1] (cell cycle stage: mitosis) it was 58.3 °C. Also, in the data set with HeLa Kyoto [2], the “solubility change mitosis (log2)” value came to 0.414. Also, the thermal stability score is -2.14 in the data set with HeLa Kyoto [3] (setting [5]) and -6.31 in the data set on HeLa Kyoto [3] (cell cycle stage: mitosis). Besides, the “solubility in G1/S (log2)” value in the data set on HeLa Kyoto [4] is -0.39.
Take “MNFLRGVMGGQSAGPQHTEAETIQKLCDRVASSTLLDDRRNAVRALKSLSKKYRLEVGIQAMEHLIHVLQTDRSDSEIIGYALDTLYNIISNEEEEEVEENSTRQSEDLGSQFTEIFIKQQENVTLLLSLLEEFDFHVRWPGVKLLTSLLKQLGPQVQQIILVSPMGVSRLMDLLADSREVIRNDGVLLLQALTRSNGAIQKIVAFENAFERLLDIISEEGNSDGGIVVEDCLILLQNLLKNNNSNQNFFKEGSYIQRMKPWFEVGDENSGWSAQKVTNLHLMLQLVRVLVSPTNPPGATSSCQKAMFQCGLLQQLCTILMATGVPADILTETINTVSEVIRGCQVNQDYFASVNAPSNPPRPAIVVLLMSMVNERQPFVLRCAVLYCFQCFLYKNQKGQGEIVSTLLPSTIDATGNSVSAGQLLCGGLFSTDSLSNWCAAVALAHALQENATQKEQLLRVQLATSIGNPPVSLLQQCTNILSQGSKIQTRVGLLMLLCTWLSNCPIAVTHFLHNSANVPFLTGQIAENLGEEEQLVQGLCALLLGISIYFNDNSLESYMKEKLKQLIEKRIGKENFIEKLGFISKHELYSRASQKPQPNFPSPEYMIFDHEFTKLVKELEGVITKAIYKSSEEDKKEEEVKKTLEQHDNIVTHYKNMIREQDLQLEELRQQVSTLKCQNEQLQTAVTQQVSQIQQHKDQYNLLKIQLGKDNQHQGSYSEGAQMNGIQPEEIGRLREEIEELKRNQELLQSQLTEKDSMIENMKSSQTSGTNEQSSAIVSARDSEQVAELKQELATLKSQLNSQSVEITKLQTEKQELLQKTEAFAKSVEVQGETETIIATKTTDVEGRLSALLQETKELKNEIKALSEERTAIKEQLDSSNSTIAILQTEKDKLELEITDSKKEQDDLLVLLADQDQKILSLKNKLKDLGHPVEEEDELESGDQEDEDDESEDPGKDLDHI [USO1]”: the melting temperature in the data set on HeLa Kyoto [1] (cell cycle stage: G1/S) was 51.2 °C; in the data set on HeLa Kyoto [1] (cell cycle stage: mitosis), 50.6 °C. Further, the “solubility change mitosis (log2)” value in the data set on HeLa Kyoto [2] is -0.0652. Also, the figures for the thermal stability score in the data set with HeLa Kyoto [3] (setting [5]) and with HeLa Kyoto [3] (cell cycle stage: mitosis) were 2.79 and 1.73, respectively. Moreover, in the data set with HeLa Kyoto [4], the “solubility in G1/S (log2)” value was determined as 0.289.
